Test results published in paper PMC13683342, “Integrative structure of norovirus NS3 suggests a role in RNA transport”.

Target: T1, hex-ΔN61-NS3 (cc-hex fused NS3) (Human norovirus GI, UniProt Q83883 460-761)
T1 sequence: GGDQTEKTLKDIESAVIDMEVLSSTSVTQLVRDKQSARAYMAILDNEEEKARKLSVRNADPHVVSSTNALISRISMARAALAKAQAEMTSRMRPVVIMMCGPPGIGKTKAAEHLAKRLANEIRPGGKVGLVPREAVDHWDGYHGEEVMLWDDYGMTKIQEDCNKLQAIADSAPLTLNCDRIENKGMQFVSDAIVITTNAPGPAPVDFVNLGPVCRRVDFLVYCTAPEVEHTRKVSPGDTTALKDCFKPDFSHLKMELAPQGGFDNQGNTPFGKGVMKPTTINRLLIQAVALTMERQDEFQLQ
Experiment: EMSA; 20 µM protein, 0.2 nM RNA, 5 mM Mg2+; EMSA: 25 mM HEPES pH 8.0, 30 mM NaCl, 5 mM MgCl2, 2 mM DTT, RNasin, 5% glycerol, 37 °C 1 h, 6% native PAGE; tweezers buffer not in material
Conditions: protein: recombinant; tags: N-terminal 32-residue cc-hex replaces residues 1-61; chain copies: 6; label: 5' HEX; single strand, 42 nt

CAUUAUCGGAUAGUGGAACCUAGCUUCGACUAUCGGAUAAUC (ssRNA) [RNA1]: binds.
